B1: OR4K15 (parent)
chain: GUUAACGGUCAUAGGCCAUGGAAACUAGGAGCACCAUUUCGCUGCCAGUGAAGAAAUGAACAAAGAAAAUCUGGGCCAGGCAGGCAUCAAAAGAAAUAGUCUUGCGCUCAACCAGAAAGUCUGUAAUCAUUUUAAGGGUA

Variants of: B1
Test: self-cleavage, relative activity (ratio to wild type); higher = more cleavage; in vitro, sequencing; the parent is a self-cleaving ribozyme

Variant	self-cleavage
A5U U120C	0.76
G50C A56G	1.42
A59G C109G	0.03
A13U C105U	0.23
A52G A89C	2.11
U39A G115U	0.27
A24C A118G	0.96
A30G U37A	1.7
U72A U132A	0.25
U72A U132C	0.23
G41U A82G	0.2
A110G	0.13
A11G A92U	1.26
U87A A114G	0.08
U57C A86G	0.94
U38A	1.44
U9C A11C	1.71
U57A A60G	1.19
U49C A94U	1.36
U26C A30G	1.25
G1U A33G	0.79
A59U U100G	2.13
A69U A140U	2.31
A18G G44A	1.66

Variant	self-cleavage
A52G C76U	0.13
A114U U131C	0.02
A54G A78G	0.3
A11C U103C	0.98
A86U C105U	0.27
A111G A114U	0
C46U A111G	0.02
C34U A91G	1.1
A11G C105U	0.09
A5U G29U	1.39
G41A A86G	1.05
U70G U103C	1.08
U26C A52U	0.88
A52G A94U	2.01
A36G U39C	0.79
U43C A64G	1.66
A11U A129G	1.27
C101A U122C	0.13
A22G C42A	0.91
A69U A82U	0.04
A13G A56U	1.33
C112A	0.01
U87C C113U	0.12
A13G C85U	0.89

Variant	self-cleavage
A5G U37A	1.3
A96C U102C	2.16
A5G A33G	0.67
U39C A67G	1.24
U72A A82C	0.35
C77A A114G	0.32
G21A U102C	2.29
U132C U139C	1.81
A18C U57C	0
A64C C105U	0.17
A13U C34U	1.2
C35A C112U	0.03
U49A A134G	0.74
G104A A126G	0.02
A18G A63G	1.17
A59G A111G	0.02
C46U U120C	0.15
A95G G136A	2
A22U A55G	0.73
U12C A135C	0.84
U43C A60G	1.43
A82G U122C	0.24
A60G A94U	2.32
A5G A118G	1

Variant	self-cleavage
U72A A94G	0.02
U43A A117U	1.18
U12C U131C	1.28
A23U U38C	0.48
A91G A111G	0.01
U39C U120C	0.95
A23U U102C	1.7
A78G A82G	0.13
A117U U122C	1.24
U26C A78U	0.21
A36U A129G	1.12
U87C U127C	0.64
A86G U100C	2.12
A69G U70C	0.25
G74U A82G	0.28
A59U A86G	0.7
U12C U38G	1.22
A51G U122C	0.6
A82G G83U	0.08
A110U A126G	1.05
A5C A116G	0.83
C17U A118G	1.1
G15A A118G	0.47
A92U A114U	0.14

Variant	self-cleavage
A22G C107U	0.06
U57C A95U	1.28
A64G U72C	0.27
A55G A110G	0.12
G15U U72G	0.36
U72C U130C	0.16
G28A A114U	0.18
A66G U103C	1.06
C16U C85U	1.15
U72C U100C	0.34
A54G U103A	0.48
C32U A117U	0.3
A96G U97C	0.99
A33G A114C	0.05
G48A U70C	0.31
G79A U87C	0.1
A24G C85G	0.97
U72C A140C	0.44
U72C U120A	0.13
A60U A96G	1.78
U102G	0.58
G80U A91G	0.11
A5U A126G	1.07
U70C C107U	0.02

Variant	self-cleavage
U43A A64G	1.49
U49C A98G	0.48
U49C A98C	1.84
A52G U100C	2.01
A60G A118C	0.74
U97C U102A	0.47
G115A A116G	0.23
A11G A89G	0.59
U43C A51U	1.35
U12C A95G	1.57
A55U U130C	1.13
G15A U19C	0
U26A	1.07
A36G A92G	1
A36U U131C	1.87
A56U A66U	0.42
C45U U132A	1.05
A54G C71U	0.58
U39A U49C	1
U37C G74U	0.2
A64G A126C	1.16
A24G A51G	1.27
A62G A129G	1.09
A51U U87C	0.54

Variant	self-cleavage
A64G A91G	1.33
U72C U87C	0.22
U39C G99A	0.3
A22U A59G	1.48
A24G U131A	1.22
A33G C113A	0.01
U19C U100C	1.97
U3A U100C	1.63
G123C A135G	0.78
A94U G119A	2.29
A18G A92G	1.3
A18G A30U	1.01
G106A U127A	0.01
U12C U130A	1.45
U70C A125G	0.19
A63G A135U	0.04
A11C A82U	0.36
A89G A135U	1.15
G41A A89G	2.8
A56G A96G	1.68
U70C A111U	0.07
U9C U12A	1.59
U100C A110G	0.32

— the RNAGym collection of RNA variant scans (doi:10.7554/elife.90254)
